Results: the supplement of paper PMC9732359
± gives the uncertainty stated by the source.

Assay: protein stability index of a GFP-peptide fusion (yeast GPS) (PSI 1-4); higher = more stable; sorted into four equal gates, so the index is relative within each strain
Procedure, shortened: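 The protein stability index combines read frequencies across sorting gates, each weighted by its gate number and then summed. To obtain those frequencies, a pooled yeast library of GFP fusions to tiled 17-residue yeast protein peptides, on a plasmid also expressing Cherry, was grown to mid-log phase in leucine-free medium. The cells were sorted into four equal gates by GFP/Cherry ratio before plasmid amplification by PCR and Illumina sequencing.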

Row | Sequence | protein stability index (doa10∆) | protein stability index (pdr5∆) | protein stability index (san1∆) | protein stability index (ubr1∆)
1 | SSGVLSSNIAGTNPLSS [SSN2] | 3.41 ± 0.13 | 2.9 ± 0.12 | 2.83 ± 0.19 | 3.31 ± 0.088
2 | SSIDKIEDRDFLVRYAC [SIR3] | 2.9 ± 0.17 |  |  | 3.02 ± 0.21
3 | SSIHAIGSIKEDYLGAI [RPB7] | 2.61 ± 0.076 | 2.74 ± 0.064 | 2.71 ± 0.067 | 3.01 ± 0.095
4 | SSIHWNNWFSLPGDMLA [SIN4] | 2.56 ± 0.061 | 1.88 ± 0.055 | 1.71 ± 0.11 | 1.93 ± 0.041
5 | SSKLQLTKKYSFKIFVD [RRP42] | 2.19 ± 0.09 | 1.76 ± 0.062 | 1.76 ± 0.086 | 2.06 ± 0.044
6 | SSKNETSKPVFSFGAAT [YLR335W/NUP2] | 3.12 ± 0.071 | 3.08 ± 0.07 | 2.88 ± 0.063 | 3.06 ± 0.038
7 | SSLIPHCITSITLALAD [MTR3] | 1.28 ± 0.055 | 1.32 ± 0.069 | 1.27 ± 0.17 | 1.3 ± 0.083
8 | SSLPPGEILLPDIADIP [SNF5] | 3.12 ± 0.074 | 3.25 ± 0.063 | 3.19 ± 0.076 | 3.25 ± 0.048
9 | SSLRKNASGNKRSGVIE [ITC1] | 2.96 ± 0.22 | 2.22 ± 0.15 |  | 2.06 ± 0.089
10 | SSQKDGNDFKFNYQGDE [REC8] | 3.41 ± 0.067 | 3.45 ± 0.072 | 3.43 ± 0.051 | 3.4 ± 0.058
11 | SSRFKHRQEIFKDSPMD [GAL11] | 2.71 ± 0.078 | 3.11 ± 0.066 | 3.03 ± 0.059 | 3.01 ± 0.076
12 | SSRPNVNTTRRFQYSDD [YMR129W/POM152] | 2.93 ± 0.14 | 3.16 ± 0.11 | 2.4 ± 0.16 | 2.69 ± 0.088
13 | SSSAQQTKSNGTAGGNT [YJL041W/NSP1] | 3.32 ± 0.12 | 3.46 ± 0.16 | 3.36 ± 0.078 | 3.28 ± 0.085
14 | SSSGNTWSLILNECLKT [YML031W/NDC1] | 1.85 ± 0.066 | 1.73 ± 0.084 | 1.48 ± 0.13 | 1.52 ± 0.061
15 | SSTGGGLFGNKPALGSL [YGR119C/NUP57] | 3.33 ± 0.1 | 3.44 ± 0.088 | 3.4 ± 0.048 | 3.41 ± 0.056
16 | SSTTGMSYVVRILSTLD [RPT3] | 2.31 ± 0.082 | 2.42 ± 0.084 | 2.49 ± 0.053 | 2.91 ± 0.066
17 | SSYMGKHWTEKSLHEMN [PRP28] | 3.23 ± 0.14 | 3.14 ± 0.23 | 3.07 ± 0.19 | 
18 | STAFQNTPLSLPTRGTL [COR1] | 2.27 ± 0.05 | 2.38 ± 0.038 | 1.97 ± 0.05 | 2.59 ± 0.035
19 | STDNEAITISNSIDINY [SMC1] | 2.62 ± 0.053 | 2.93 ± 0.057 | 2.67 ± 0.045 | 2.88 ± 0.039
20 | STFQTRRRRLKKVEEEE [RPB4] | 3.33 ± 0.15 | 3.52 ± 0.12 |  | 3.36 ± 0.14
21 | STGGKAPRKQLASKAAR [HHT1] | 2.35 ± 0.23 | 3.35 ± 0.21 | 3.03 ± 0.1 | 3.25 ± 0.21
22 | STKKDTVQLTFLIDVLK [YCG1] | 2.38 ± 0.096 | 2.72 ± 0.068 | 2.47 ± 0.078 | 2.81 ± 0.068
23 | STSFKNPRRLEIKDGRS [YMR153W/NUP53] | 3.06 ± 0.084 | 3.06 ± 0.09 | 2.83 ± 0.085 | 3.16 ± 0.041
24 | STSIQYHGISKNDNIKK [POP6] | 2.79 ± 0.068 | 2.9 ± 0.055 | 2.89 ± 0.043 | 2.92 ± 0.05
25 | STTASGTTATGTGLFGQ [YGR119C/NUP57] | 3.18 ± 0.074 | 3.35 ± 0.067 | 3.27 ± 0.068 | 3.43 ± 0.055
26 | STVQTPITASMAAALPN [PGD1] | 1.59 ± 0.074 | 1.55 ± 0.099 | 1.37 ± 0.11 | 1.4 ± 0.05

Row | Sequence | protein stability index (doa10∆) | protein stability index (pdr5∆) | protein stability index (san1∆) | protein stability index (ubr1∆)
27 | SVGVIINKMVGNRYLEK [RPL21A] | 3.01 ± 0.14 | 3.35 ± 0.13 | 2.43 ± 0.2 | 3 ± 0.095
28 | SVIVSQFCAFDSSSNTY [SIN4] | 2.48 ± 0.084 | 2.26 ± 0.073 | 2.51 ± 0.12 | 2.19 ± 0.074
29 | SVKDYRPAEETEAQAEP [RPS3] | 2.76 ± 0.065 | 3.07 ± 0.068 | 3.11 ± 0.041 | 2.93 ± 0.043
30 | SVKSVKFPTRKIYMLYS [RPC34] |  |  |  | 3.58 ± 0.25
31 | SVLRDTLVAQNLKQANN [SMC4] | 2.68 ± 0.082 | 2.53 ± 0.06 | 2.48 ± 0.052 | 2.33 ± 0.035
32 | SVNIAFAISMGYLFKVS [ECM29] | 2.21 ± 0.14 | 2.84 ± 0.13 | 2.83 ± 0.093 | 3.22 ± 0.13
33 | SVNPSNKPIKRMLSSIL [SWP82] | 2.95 ± 0.065 | 2.99 ± 0.044 | 2.93 ± 0.045 | 2.99 ± 0.037
34 | SVREINLYMLVTTCVYL [SSN8] | 2.32 ± 0.057 | 1.67 ± 0.047 | 2.33 ± 0.065 | 1.92 ± 0.047
35 | SVRLQVTKILPHLIIQN [IRR1] | 1.65 ± 0.091 | 1.7 ± 0.064 | 1.72 ± 0.094 | 1.7 ± 0.06
36 | SVRRSGALDVEGLCIVA [RRP45] | 2.47 ± 0.15 | 3.06 ± 0.11 | 3 ± 0.11 | 2.83 ± 0.18
37 | SYAGISTDKLVQCHGSF [SIR2] | 2.57 ± 0.12 | 2.76 ± 0.11 | 2.78 ± 0.13 | 2.98 ± 0.092
38 | SYESLKKRKIHNGREGS [MCD1] | 1.7 ± 0.04 | 1.91 ± 0.041 | 1.69 ± 0.062 | 2 ± 0.032
39 | SYEYYNIKHKHTSIRET [SMC2] | 1.61 ± 0.047 | 1.83 ± 0.066 | 1.67 ± 0.11 | 1.87 ± 0.049
40 | SYKMIQLDAYGEKKVGS [SWP82] | 3.27 ± 0.093 | 3.37 ± 0.093 | 3.35 ± 0.075 | 3.02 ± 0.072
41 | TAAANTEKLSNGFSFTK [YOR098C/NUP1] | 2.81 ± 0.079 | 2.48 ± 0.057 | 2.56 ± 0.065 | 2.46 ± 0.044
42 | TAAIDSVVSQIEKGSTF [FAS1] | 3.1 ± 0.097 | 2.95 ± 0.078 | 3.12 ± 0.072 | 2.93 ± 0.057
43 | TAGVGSTPNFGGNSNKS [SIN4] | 3.73 ± 0.2 | 3.31 ± 0.21 | 3.39 ± 0.078 | 3.36 ± 0.061
44 | TAKPAFSFGAKPAEKNN [YJL041W/NSP1] | 3.19 ± 0.11 | 3.35 ± 0.12 | 3.19 ± 0.11 | 3.4 ± 0.15
45 | TALKQYEKELMGDELTR [RPN6] | 3.26 ± 0.13 | 3.54 ± 0.15 | 3.42 ± 0.077 | 3.51 ± 0.12
46 | TAPSSERRVLLSAPLSK [RPL26B] | 1.86 ± 0.041 | 2.4 ± 0.044 | 2.66 ± 0.062 | 2.08 ± 0.044
47 | TATGAASKSGKLTQKLV [CYT1] | 1.64 ± 0.092 | 1.62 ± 0.078 | 2.69 ± 0.11 | 1.83 ± 0.063
48 | TATIINNESSDDMDIDE [PCI8] | 3.1 ± 0.097 | 3.17 ± 0.07 | 3.02 ± 0.095 | 3.31 ± 0.056
49 | TDAYLDQYLWYEADQRK [PRP8] | 3.18 ± 0.12 | 3.21 ± 0.17 | 3.02 ± 0.18 | 3.12 ± 0.081
50 | TDDQGRVIDDNNRRRSR [SIR3] | 3.66 ± 0.12 | 3.05 ± 0.24 | 3.39 ± 0.17 | 
51 | TDDVRLAPELNQAIWKR [RPL31A] | 3.28 ± 0.1 | 3.3 ± 0.077 | 3.18 ± 0.079 | 3.12 ± 0.048
52 | TDIKDTLTKISMLFKTS [MCD1] | 2.87 ± 0.15 | 2.88 ± 0.27 | 2.37 ± 0.18 | 
